Assay results reported in patent US20210155676A1 (Gilead, published 2021).
Positions count from the first letter of the chain named.

B1: PGT121.61 hIgG1/hLambda (antibody)
heavy: QMQLQESGPGLVKPSETLSLTCSVSGASISDSYWSWIRRSPGKGLEWIGYVHKSGDTNYNPSLKSRVHLSLDTSKNQVSLSLTGVTAADSGKYYCARTLHGRRIYGIVAFNEWFTYFYMDVWGTGTQVTVSSASTKGPSVFPLAPSSKSTSGGTAALGCLVKDYFPEPVTVSWNSGALTSGVHTFPAVLQSSGLYSLSSVVTVPSSSLGTQTYICNVNHKPSNTKVDKKVEPKSCDKTHTCPPCPAPELLAGPDVFLFPPKPKDTLMISRTPEVTCVVVDVSHEDPEVKFNWYVDGVEVHNAKTKPREEQYNSTYRVVSVLTVLHQDWLNGKEYKCKVSNKALPLPEEKTISKAKGQPREPQVYTLPPSREEMTKNQVSLTCLVKGFYPSDIAVEWESNGQPENNYKTTPPVLDSDGSFFLYSKLTVDKSRWQQGNVFSCSVLHEALHSHYTQKSLSLSPGK
light: SDISVAPGETARISCGEKSLGSRAVQWYQHRAGQAPSLIIYNNQDRPSGIPERFSGSPDSRPGTTATLTITSVEAGDEADYYCHIWDSRVPTKWVFGGGTKLTVLGQPKAAPSVTLFPPSSEELQANKATLVCLISDFYPGAVTVAWKADSSPVKAGVETTTPSKQSNNKYAASSYLSLTPEQWKSHRSYSCQVTHEGSTVEKTVAPTECS
B2: PGT121.42 hIgG1/hLambda (antibody)
heavy: B1 heavy with T83S, G84S, T124K
light: not shown
notes: also called PTG121.42
B3: PGT121.64 hIgG1/hLambda (antibody)
heavy: B1 heavy with M2L, S32A, T98A
light: not shown
B4: PGT121.56 hIgG1/hLambda (antibody)
heavy: B1 heavy with N60S, H68N, T83V, G84A, V85A, T124N
light: not shown
B5: PGT121.65 hIgG1/hLambda (antibody)
heavy: B1 heavy with M2L, S32A, T98A
light: B1 light
B6: PGT121.60 hIgG1/hLambda (antibody)
heavy: B1 heavy
light: not shown
B7: PGT121.61 hIgG1/hLambda (antibody)
heavy: B1 heavy
light: B1 light

The binders below were run against T1, Human FcRn (human, UniProt P55899 24-297; P61769 21-119) (assay: ELISA, FcRn coated on plate, pH 6.0).
T1 construct: also called neonatal Fc receptor
T1 sequence (P55899 24-297 limits assumed, chain 1 of 2): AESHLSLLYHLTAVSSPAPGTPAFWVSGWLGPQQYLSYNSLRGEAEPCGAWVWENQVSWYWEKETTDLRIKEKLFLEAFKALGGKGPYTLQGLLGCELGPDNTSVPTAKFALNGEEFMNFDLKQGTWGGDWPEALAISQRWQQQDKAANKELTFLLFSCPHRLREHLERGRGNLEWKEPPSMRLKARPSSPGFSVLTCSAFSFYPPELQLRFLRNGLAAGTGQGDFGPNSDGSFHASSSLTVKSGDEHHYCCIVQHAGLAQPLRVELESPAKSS
T1 sequence (P61769 21-119 limits assumed, chain 2 of 2): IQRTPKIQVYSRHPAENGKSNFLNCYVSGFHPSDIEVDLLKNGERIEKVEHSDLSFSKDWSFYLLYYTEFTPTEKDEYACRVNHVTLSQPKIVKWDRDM
Protocol: (§1) The binding of antibodies to FcRn of various species at different pHs was determined. A 96-well Maxisorp plate was coated with 100 ul of 5 μg/ml FcRn. The plate was incubated overnight at 4° C., and then blocked with 4% skim milk for 2 hr at room temperature after washing 3 times with 0.05% Tween 20 washing buffer. The plate was incubated with 3 fold serial dilution of primary antibody for 1 hr at room temperature. The plate was then washed 3 times and 100 of Fab-anti-human Fab-HRP or Goat anti-human IgG-HRP secondary antibody diluted in 4% skimmed milk was added. Plates were then incubated 50 min at room temperature, washed three times, and 100 μL fresh TMB substrate was added. Plates were developed for 3 minutes on bench with gentle shaking. Plate was quenched with 100 μL 1M HCl, shaken briefly, read at A450 on a spectramax m5 plate reader.
With B1 the EC50 was 0.13 nM.
B2 gave an EC50 of 0.41 nM.
In the case of B3, the EC50 is reported as 1.59 nM.
Work on B4 yielded an EC50 of 0.47 nM.
Work on B5 yielded an EC50 of 0.57 nM.

These binders were tested against T1, Human FcRn (assay: ELISA, FcRn coated on plate, pH 7.0).
Protocol: as §1
B1 showed an EC50 of 140 nM.
B2 showed an EC50 of 69.8 nM.
In the case of B3, the EC50 is reported as 125 nM.
Binder B4 has an EC50 of 102 nM.
With B5 the EC50 was 104 nM.

What follows are binders tested against human FcγRIIIA on primary NK effector cells (human, UniProt P08637 17-254) (assay: cell-based or functional assay).
Sequence of human FcγRIIIA on primary NK effector cells (P08637 17-254): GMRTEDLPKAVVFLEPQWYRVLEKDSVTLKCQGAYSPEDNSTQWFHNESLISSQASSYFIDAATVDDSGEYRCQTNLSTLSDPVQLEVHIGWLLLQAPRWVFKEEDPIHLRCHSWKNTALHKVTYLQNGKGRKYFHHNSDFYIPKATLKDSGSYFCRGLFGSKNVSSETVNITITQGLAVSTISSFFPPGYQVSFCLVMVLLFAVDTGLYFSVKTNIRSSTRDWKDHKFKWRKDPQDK
In the case of B1, the “ADCC AUC, NK donor A4813, primary CD4+ T cells infected with HT593” value (from here on “ADCC AUC, NK donor A4813 … with HT593”) is reported as 169, the “ADCC AUC, NK donor A4813, primary CD4+ T cells infected with US657” value (“ADCC AUC, NK donor A4813 … with US657” below) is reported as 190 and the “ADCC EC50, NK donor A4813, primary CD4+ T cells infected with HT593” value (shortened to “ADCC EC50, NK donor A4813 … with HT593”) is reported as 2.2 nM. The “ADCC EC50, NK donor A4813, primary CD4+ T cells infected with US657” value (from here on “ADCC EC50, NK donor A4813 … with US657”) was 1.3 nM, the “ADCC Emax, NK donor A4813, primary CD4+ T cells infected with HT593” value (shortened to “ADCC Emax, NK donor A4813 … with HT593”) was 70% and the “ADCC Emax, NK donor A4813, primary CD4+ T cells infected with US657” value (from here on “ADCC Emax, NK donor A4813 … with US657”) was 72%.
For B2, the “ADCC AUC, NK donor A4813 … with HT593” value was 191, the “ADCC AUC, NK donor A4813 … with US657” value was 222 and the “ADCC EC50, NK donor A4813 … with HT593” value was 4.9 nM. For the same binder, the “ADCC EC50, NK donor A4813 … with US657” value was 1.4 nM, the “ADCC Emax, NK donor A4813 … with HT593” value was 71% and the “ADCC Emax, NK donor A4813 … with US657” value was 72%.
In the case of B3, the “ADCC AUC, NK donor A4813 … with HT593” value is reported as 167, the “ADCC AUC, NK donor A4813 … with US657” value is reported as 188 and the “ADCC EC50, NK donor A4813 … with HT593” value is reported as 1.4 nM. For the same binder, the “ADCC EC50, NK donor A4813 … with US657” value was 1.6 nM, the “ADCC Emax, NK donor A4813 … with HT593” value was 66% and the “ADCC Emax, NK donor A4813 … with US657” value was 70%.
In the case of B4, the “ADCC AUC, NK donor A4813 … with HT593” value is reported as 161, the “ADCC AUC, NK donor A4813 … with US657” value is reported as 219 and the “ADCC EC50, NK donor A4813 … with HT593” value is reported as 6.3 nM. The “ADCC Emax, NK donor A4813 … with HT593” value was 72% and the “ADCC Emax, NK donor A4813 … with US657” value was 71%.
With B5 the “ADCC AUC, NK donor A4813 … with HT593” value was 158, the “ADCC AUC, NK donor A4813 … with US657” value was 190 and the “ADCC EC50, NK donor A4813 … with HT593” value was 2.6 nM. The “ADCC EC50, NK donor A4813 … with US657” value was 3.2 nM, the “ADCC Emax, NK donor A4813 … with HT593” value was 71% and the “ADCC Emax, NK donor A4813 … with US657” value was 75%.

Each binder was assayed against T1, Human FcRn (assay: ELISA, pH 7.0/6.0 ratio relative to PGT121).
Protocol: as §1
For B1, the “Fold vs PGT121” value was 33 fold.
With B2 the “Fold vs PGT121” value was 5 fold.
B3 was tested, and the “Fold vs PGT121” value was 2 fold.
For B5, the “Fold vs PGT121” value was 6 fold.

These binders were tested against T1, Human FcRn (assay: ELISA, ratio of EC50 at pH 7.0 to EC50 at pH 6.0).
Protocol: as §1
For B1, the “Ratio pH 7.0/6.0” value was 1070.
In the case of B2, the “Ratio pH 7.0/6.0” value is reported as 170.
With B3 the “Ratio pH 7.0/6.0” value was 79.
B5 was tested, and the “Ratio pH 7.0/6.0” value was 182.

These binders were tested against HIV-1 92US657 Env (on virus) (HIV-1 isolate 92US657) (assay: cell-based or functional assay).
B6 was tested, and the “neutralization IC50, HIV-1 US657, CEM.NKr.CCR5.Luc assay” value was 62 ng/mL.
With B7 the “neutralization IC50, HIV-1 US657, CEM.NKr.CCR5.Luc assay” value was 72 ng/mL.

These binders were tested against HIV-1 92US712 Env (on virus) (HIV-1 isolate 92US712) (assay: cell-based or functional assay).
For B6, the “neutralization IC50, HIV-1 US712, CEM.NKr.CCR5.Luc assay” value was 8 ng/mL.
In the case of B7, the “neutralization IC50, HIV-1 US712, CEM.NKr.CCR5.Luc assay” value is reported as 8 ng/mL.

What follows are binders tested against HIV-1 92US727 Env (on virus) (HIV-1 isolate 92US727) (assay: cell-based or functional assay).
For B6, the “neutralization IC50, HIV-1 US727, CEM.NKr.CCR5.Luc assay” value was 7 ng/mL.
For B7, the “neutralization IC50, HIV-1 US727, CEM.NKr.CCR5.Luc assay” value was 5 ng/mL.

These binders were tested against HIV-1 93HT593 Env (on virus) (HIV-1 isolate 93HT593) (assay: cell-based or functional assay).
For B6, the “neutralization IC50, HIV-1 HT593, CEM.NKr.CCR5.Luc assay” value was 141 ng/mL.
With B7 the “neutralization IC50, HIV-1 HT593, CEM.NKr.CCR5.Luc assay” value was 343 ng/mL.

Each binder was assayed against HIV-1 BaL Env (on virus) (HIV-1 strain BaL) (assay: cell-based or functional assay).
B6 was tested, and the “neutralization IC50, HIV-1 BaL, CEM.NKr.CCR5.Luc assay” value was 7 ng/mL.
With B7 the “neutralization IC50, HIV-1 BaL, CEM.NKr.CCR5.Luc assay” value was 8 ng/mL.
